Measured values as given in article PMC9073860.

Target: T1, C-reactive protein (CRP) (human, UniProt P02741 19-224)
T1 sequence: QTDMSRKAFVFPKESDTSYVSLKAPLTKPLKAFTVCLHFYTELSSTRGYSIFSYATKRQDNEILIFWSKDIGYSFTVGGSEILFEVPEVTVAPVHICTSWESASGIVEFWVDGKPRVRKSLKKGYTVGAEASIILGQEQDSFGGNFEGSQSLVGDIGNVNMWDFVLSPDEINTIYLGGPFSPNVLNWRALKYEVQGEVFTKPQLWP
Experiment: competition

Does CGAAGGGGATTCGAGGGGTGATTGCGTGCTCCATTTGGTG (ssDNA, 5'-biotin-(CH2)6) [CRP-aptamer (40-mer)] bind?
Result: binds
